Data: the Immune Epitope Database (IEDB)

Key:
[1] = target: HLA-B*39:01; experiment: IEDB peptide-MHC binding, purified MHC/competitive/fluorescence; filed as Kd, often an IC50 or EC50 that approximates it; ≥ and ≤ were set here for values at or beyond the usual limits of such assays; settings: source organism: Escherichia coli 536
[2] = target: HLA-B*40:01; experiment: as above; settings: source organism: Escherichia coli 536
[3] = target: HLA-B*51:01; experiment: as above; settings: source organism: Homo sapiens
[4] = target: HLA-A*02:01; experiment: as above
[5] = target: HLA-B*18:01; experiment: as above; settings: source organism: Homo sapiens
[6] = target: HLA-B*15:01; experiment: as above; settings: source organism: Homo sapiens
[7] = target: HLA-C*12:03; experiment: IEDB peptide-MHC binding, purified MHC/direct/fluorescence; filed as Kd, often an IC50 or EC50 that approximates it; ≥ and ≤ were set here for values at or beyond the usual limits of such assays
[8] = target: HLA-B*07:02; experiment: as above; settings: source organism: Macaca fascicularis
[9] = target: HLA-A*24:02; experiment: IEDB peptide-MHC binding, purified MHC/competitive/radioactivity; filed as Kd, often an IC50 or EC50 that approximates it; ≥ and ≤ were set here for values at or beyond the usual limits of such assays; settings: source organism: SARS coronavirus Tor2
[10] = target: HLA-A*30:02; experiment: as above; settings: source organism: SARS coronavirus Tor2
[11] = target: HLA-A*29:02; experiment: as above; settings: source organism: SARS coronavirus Tor2
[12] = target: HLA-A*23:01; experiment: as above; settings: source organism: SARS coronavirus Tor2
[13] = target: HLA-A*01:01; experiment: IEDB peptide-MHC binding, purified MHC/direct/fluorescence; filed as Kd, often an IC50 or EC50 that approximates it; ≥ and ≤ were set here for values at or beyond the usual limits of such assays; settings: source organism: SARS-CoV1
[14] = target: HLA-C*08:02; experiment: as above
[15] = target: HLA-B*40:01; experiment: as above; settings: source organism: SARS-CoV1
[16] = target: HLA-B*58:01; experiment: as above; settings: source organism: SARS-CoV1
[17] = target: HLA-A*26:01; experiment: as above
[18] = target: HLA-B*15:01; experiment: as above
[19] = target: HLA-C*03:03; experiment: as above
[20] = target: HLA-B*51:01; experiment: as above; settings: source organism: Vibrio cholerae O1 biovar El Tor
[21] = target: HLA-A*03:01; experiment: as above; settings: source organism: Vibrio cholerae O1 biovar El Tor
[22] = target: HLA-B*18:01; experiment: as above; settings: source organism: Vibrio cholerae O1 biovar El Tor
[23] = target: HLA-B*46:01; experiment: as above; settings: source organism: Vibrio cholerae O1 biovar El Tor
[24] = target: HLA-A*02:19; experiment: as above; settings: source organism: Vibrio cholerae O1 biovar El Tor
[25] = target: HLA-B*27:03; experiment: as above; settings: source organism: Vibrio cholerae O1 biovar El Tor
[26] = target: HLA-A*33:01; experiment: IEDB peptide-MHC binding, purified MHC/competitive/radioactivity; filed as Kd, often an IC50 or EC50 that approximates it; ≥ and ≤ were set here for values at or beyond the usual limits of such assays; settings: source organism: Vaccinia virus WR
[27] = target: HLA-B*51:01; experiment: as above; settings: source organism: Vaccinia virus WR
[28] = target: HLA-A*03:01; experiment: as above; settings: source organism: Vaccinia virus WR
[29] = target: HLA-A*11:01; experiment: as above; settings: source organism: Vaccinia virus WR
[30] = target: HLA-B*07:02; experiment: as above; settings: source organism: Vaccinia virus WR
[31] = target: HLA-B*35:01; experiment: as above; settings: source organism: Vaccinia virus WR
[32] = target: HLA-B*54:01; experiment: as above; settings: source organism: Vaccinia virus WR
[33] = target: HLA-A*68:01; experiment: as above; settings: source organism: Vaccinia virus WR
[34] = target: HLA-B*53:01; experiment: as above; settings: source organism: Vaccinia virus WR
[35] = target: HLA-A*31:01; experiment: as above; settings: source organism: Vaccinia virus WR
[36] = target: HLA-A*01:01; experiment: IEDB peptide-MHC binding, purified MHC/competitive/fluorescence; ≥ and ≤ were set here for values at or beyond the usual limits of such assays
[37] = target: HLA-A*01:01; experiment: IEDB peptide-MHC binding, purified MHC/competitive/fluorescence; filed as Kd, often an IC50 or EC50 that approximates it; ≥ and ≤ were set here for values at or beyond the usual limits of such assays; settings: source organism: Escherichia coli APEC O1
[38] = target: HLA-B*58:01; experiment: as above; settings: source organism: Escherichia coli APEC O1
[39] = target: HLA-A*26:01; experiment: as above; settings: source organism: Escherichia coli APEC O1
[40] = target: HLA-B*08:01; experiment: as above; settings: source organism: Yersinia pestis Nepal516
[41] = target: HLA-C*15:02; experiment: IEDB peptide-MHC binding, purified MHC/direct/fluorescence; filed as Kd, often an IC50 or EC50 that approximates it; ≥ and ≤ were set here for values at or beyond the usual limits of such assays; settings: source organism: Yersinia pestis Nepal516
[42] = target: HLA-C*14:02; experiment: as above; settings: source organism: Yersinia pestis Nepal516
[43] = target: HLA-C*06:02; experiment: as above; settings: source organism: Yersinia pestis Nepal516
[44] = target: HLA-C*05:01; experiment: as above; settings: source organism: Yersinia pestis Nepal516
[45] = target: HLA-B*15:01; experiment: IEDB peptide-MHC binding, purified MHC/competitive/fluorescence; ≥ and ≤ were set here for values at or beyond the usual limits of such assays; settings: source organism: Vaccinia virus Copenhagen
[46] = source organism: Vibrio cholerae B33
[47] = source organism: Vibrio cholerae O1 biovar El Tor
[48] = source organism: Vaccinia virus Copenhagen

Sequence: EEQQSMLAL
- Kd [1]: 27 nM
- Kd [2]: 8.3 nM

Sequence: FAAPHRGVA
- Kd [3]: ≥ 20000 nM
- Kd ([4]; source organism: Homo sapiens): ≥ 20000 nM
- Kd [5]: ≥ 20000 nM
- Kd [6]: ≥ 20000 nM
- Kd ([7]; source organism: Homo sapiens): ≤ 1 nM
- Kd [8]: 3.1 nM

Sequence: FADINGKLY
- Kd [9]: ≥ 77600 nM
- Kd [10]: 1600 nM
- Kd [11]: 17 nM
- Kd [12]: ≥ 77800 nM
- Kd [13]: 191 nM
- Kd ([14]; source organism: SARS-CoV1): ≤ 1 nM
- Kd [15]: ≥ 71300 nM
- Kd [16]: 2250 nM
- Kd ([17]; source organism: SARS-CoV1): 562 nM
- Kd ([18]; source organism: SARS-CoV1): 3140 nM

Sequence: FATPAFFLI
- Kd [19, 46]: ≤ 1 nM
- Kd [20]: 859 nM
- Kd [21]: ≥ 20000 nM
- Kd [22]: ≥ 20000 nM
- Kd [14, 46]: 198 nM
- Kd [23]: ≥ 20000 nM
- Kd [17, 47]: ≥ 20000 nM
- Kd [24]: ≥ 20000 nM
- Kd [25]: ≥ 20000 nM
- Kd [18, 47]: ≥ 20000 nM

Sequence: RVYEALYYV
- Kd [26]: ≥ 77700 nM
- Kd [27]: ≥ 67800 nM
- Kd [28]: 717 nM
- Kd [29]: 80.2 nM
- Kd [30]: ≥ 53800 nM
- Kd [31]: ≥ 77400 nM
- Kd [32]: 6410 nM
- Kd [33]: ≥ 77700 nM
- Kd [34]: ≥ 78200 nM
- Kd [35]: 13.7 nM
- Kd [4, 48]: 0.8 nM
- Kd [19, 48]: 1240 nM
- Kd [7, 48]: 26 nM
- Kd [14, 48]: ≥ 20000 nM

Sequence: SSDPGTNTT
- IC50 ([36]; source organism: Zaire ebolavirus): ≥ 162000 nM

Sequence: YTTDVNQLY
- Kd [37]: 5.1 nM
- Kd [38]: 36 nM
- Kd [39]: 16 nM
- Kd ([14]; source organism: Escherichia coli APEC O1): 1010 nM

Sequence: YVIKKSSPL
- Kd [40]: 196 nM
- Kd ([19]; source organism: Yersinia pestis Nepal516): 2 nM
- Kd [41]: 3950 nM
- Kd [42]: 163 nM
- Kd [43]: ≥ 20000 nM
- Kd [44]: ≥ 20000 nM

Sequence: YVTLNASQY
- Kd [26]: ≥ 77700 nM
- Kd [28]: 4770 nM
- Kd [29]: 1120 nM
- Kd [33]: 10.7 nM
- Kd [35]: ≥ 51400 nM
- IC50 [36, 48]: 17100 nM
- IC50 [45]: 8060 nM
